The assay deals with T1, endogenous Fzd7 on activated mouse satellite cells (mouse, UniProt Q61090 33-572).
T1 construct: whole, on cells; also called Frizzled7; Wnt7a receptor Fzd7
The experiment in a line: in-situ proximity ligation assay (PLA) on activated satellite cells on cultured myofibers; signal abolished by siSdc4. As for the experimental part: A) Co-IP of Sdc4 with the Wnt7a receptor Fzd7 from satellite cell derived primary myoblasts overexpressing (OE) Fzd7-Flag and Sdc4-YFP. Co-IP was performed with an anti-YFP antibody or with an IgG control. B) Proximity ligation assay (PLA) of Sdc4 and Fzd7 in activated satellite cells after 42 hours of fiber culture. […] Scale bar=5 μm. C) Proximity ligation assay (PLA) of Sdc4 and FN in activated satellite cells after 42 hours of fiber culture. […] Scale bar=5 μm. D) Co-IP of Fzd7 with FN from satellite cell derived primary myoblasts overexpressing (OE) Fzd7-Flag and FN. Co-IP was performed with an anti-YFP antibody. siRNA knockdown of endogenous Sdc4 (siSdc4) prevented Co-IP of FN with Fzd7 when compared to siSCR. E) Co-IP of Sdc4 with Wnt7a from satellite cell derived primary myoblasts that overexpress (OE) Sdc4-YFP and Wnt7a-HA. Co-IP was performed with an anti-flag antibody. siRNA knockdown of endogenous Fzd7 prevented Co-IP of Sdc4 with Wnt7a. F) Rac1 activation assay. Total Rac1 is shown as a loading control. Densitometric quantification represents average grey values±SEM after subtraction of the background and normalization to total Rac1. The average grey value obtained for empty vector (EV) was set to 100%, n=3, p values are ***p<0.001, **p<0.01, *p<0.05.
Mouse Fzd7 immunoprecipitated with mouse Sdc4 in mammalian myogenic cells. […]

B1: endogenous Syndecan 4 (Sdc4) on mouse satellite cells and primary myoblasts (receptor, UniProt O35988 24-198, looked up)
chain: ESIRETEVIDPQDLLEGRYFSGALPDDEDAGGSDDFELSGSGDLDDTEEPRPFPEVIEPLVPLDNHIPENAQPGIRVPSEPKELEENEVIPKRAPSDVGDDMSNKVSMSSTAQGSNIFERTEVLAALIVGGVVGILFAVFLILLLVYRMKKKDEGSYDLGKKPIYKKAPTNEFYA
notes: whole, on cells; also called FN receptor Sdc4
Regarding B1, the binding result was “binds”.

The values above are taken from US20150111822A1 (OTTAWA HOSPITAL RESEARCH INSTITUTE, published 2015).
